The results in this text go back to patent US20190185562A1.

In test [1] the target is gp130 expressed endogenously on IMR-32/STAT3-Luc cells (human) (UniProt P40189). Kind of test: FACS, secondary antibody alone, IMR-32/Stat3-luc cells, no hGP130.mmh.
The target of test [2] is full length (FL) human gp130 over-expressed on HEK293/Stat3-luc/gp130-2X Sort cells (human) (UniProt P40189). Briefly: FACS, secondary antibody alone, 293/Stat3-luc/GP130 2X sort cells. On the technique in general: A flow cytometer gives signals particle by particle.
full length (FL) human gp130 over-expressed on HEK293/Stat3-luc/gp130-2X Sort cells (human), sequence (P40189 23-918): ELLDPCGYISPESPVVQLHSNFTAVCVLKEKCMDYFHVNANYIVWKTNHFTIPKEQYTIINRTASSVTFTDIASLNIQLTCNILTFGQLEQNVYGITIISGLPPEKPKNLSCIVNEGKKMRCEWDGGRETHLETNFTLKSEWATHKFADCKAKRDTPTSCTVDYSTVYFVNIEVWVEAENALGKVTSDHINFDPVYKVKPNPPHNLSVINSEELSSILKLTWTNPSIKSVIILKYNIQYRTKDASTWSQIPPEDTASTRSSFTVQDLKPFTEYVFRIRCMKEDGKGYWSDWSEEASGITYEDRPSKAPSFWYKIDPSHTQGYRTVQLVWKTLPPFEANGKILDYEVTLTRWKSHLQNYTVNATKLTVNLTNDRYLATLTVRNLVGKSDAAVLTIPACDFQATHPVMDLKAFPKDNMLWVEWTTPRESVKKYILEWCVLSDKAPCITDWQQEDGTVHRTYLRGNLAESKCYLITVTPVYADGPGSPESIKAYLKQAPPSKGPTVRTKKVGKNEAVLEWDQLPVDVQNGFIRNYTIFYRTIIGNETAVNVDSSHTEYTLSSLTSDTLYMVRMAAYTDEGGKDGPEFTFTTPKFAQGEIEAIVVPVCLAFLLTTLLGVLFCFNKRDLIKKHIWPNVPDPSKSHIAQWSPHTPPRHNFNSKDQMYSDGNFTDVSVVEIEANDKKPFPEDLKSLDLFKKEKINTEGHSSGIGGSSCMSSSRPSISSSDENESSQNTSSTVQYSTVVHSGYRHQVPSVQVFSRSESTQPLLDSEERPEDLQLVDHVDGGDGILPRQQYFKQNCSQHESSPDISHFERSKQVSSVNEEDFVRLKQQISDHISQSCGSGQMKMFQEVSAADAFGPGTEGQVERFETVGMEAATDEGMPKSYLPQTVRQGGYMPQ
Test [3] deals with gp130 expressed endogenously on IMR-32/STAT3-Luc cells (human) (UniProt P40189). Briefly: FACS, secondary antibody alone, IMR-32/Stat3-luc cells, 1 uM hGP130.mmh present.
Test [4] addresses full length human GP130 (leucine at position 2 changed to valine) on HEK293/Stat3-luc/gp130-2X Sort cells (human) (UniProt P40189). Briefly: FACS, secondary antibody only, HEK293/gp130 2X Sort cells.
Test [5] has as its target extracellular domain of human LEPR, GPI-anchored on HEK293/hLEPR-GPI cells (human) (UniProt P48357). Briefly: FACS, secondary antibody only, HEK293/hLEPR-GPI cells, No Leptin.
Test [6] shares this target. Kind of test: FACS, secondary antibody only, HEK293/hLEPR-GPI cells, 1 µM Leptin present.
Test [7] addresses full length human GP130 (leucine at position 2 changed to valine) on HEK293/Stat3-luc/gp130-2X Sort cells (human) (UniProt P40189). Briefly: FACS, 200 nM antibody, HEK293/gp130 2X Sort cells.
The target in test [8] is extracellular domain of human LEPR, GPI-anchored on HEK293/hLEPR-GPI cells (human) (UniProt P48357). Briefly: FACS, 200 nM antibody, HEK293/hLEPR-GPI cells, No Leptin.
extracellular domain of human LEPR, GPI-anchored on HEK293/hLEPR-GPI cells (human), sequence (P48357 22-839 limits assumed): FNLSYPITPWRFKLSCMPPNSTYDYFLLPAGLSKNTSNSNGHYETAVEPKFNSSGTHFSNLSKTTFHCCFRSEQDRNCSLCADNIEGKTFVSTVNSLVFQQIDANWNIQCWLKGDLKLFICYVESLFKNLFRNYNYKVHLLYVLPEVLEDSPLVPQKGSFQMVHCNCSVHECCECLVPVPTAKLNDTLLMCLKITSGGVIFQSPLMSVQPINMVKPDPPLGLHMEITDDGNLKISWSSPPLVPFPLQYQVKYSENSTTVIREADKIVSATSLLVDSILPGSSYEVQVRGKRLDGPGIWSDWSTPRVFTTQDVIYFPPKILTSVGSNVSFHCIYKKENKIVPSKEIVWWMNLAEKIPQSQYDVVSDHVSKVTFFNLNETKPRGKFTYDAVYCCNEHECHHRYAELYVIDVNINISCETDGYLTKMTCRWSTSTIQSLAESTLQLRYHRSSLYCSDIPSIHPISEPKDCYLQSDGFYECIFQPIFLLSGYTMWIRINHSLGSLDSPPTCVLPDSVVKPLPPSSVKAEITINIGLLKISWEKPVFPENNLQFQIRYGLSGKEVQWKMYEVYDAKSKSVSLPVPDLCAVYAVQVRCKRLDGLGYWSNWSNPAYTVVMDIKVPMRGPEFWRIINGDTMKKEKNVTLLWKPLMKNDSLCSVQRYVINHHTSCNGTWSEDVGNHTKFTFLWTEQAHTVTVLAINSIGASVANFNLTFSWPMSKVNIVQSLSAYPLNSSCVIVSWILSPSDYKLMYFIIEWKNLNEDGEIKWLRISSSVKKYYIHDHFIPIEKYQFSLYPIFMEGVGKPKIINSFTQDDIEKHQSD
Test [9] shares this target. Briefly: FACS, 200 nM antibody, HEK293/hLEPR-GPI cells, 1 µM Leptin present.
Test [10] has as its target gp130 expressed endogenously on IMR-32/STAT3-Luc cells (human) (UniProt P40189). Briefly: cell-based or functional assay.

gp130 expressed endogenously on IMR-32/STAT3-Luc cells (human), sequence (P40189 23-918): as the sequence (P40189 23-918) above
full length human GP130 (leucine at position 2 changed to valine) on HEK293/Stat3-luc/gp130-2X Sort cells (human), sequence (P40189 23-918): as above

Consider a-h 2″ alone (antibody), for which the MFI - Normalized to Unstained Control amounted to 4 in test [1], 2 in [2] and 8 in test [3].

As for Secondary antibody alone, the Binding Ratio: Normalized to Unstained Sample of Each Cell Line (FL4-A) amounted to 1 in test [4], 3 in [5] and 2 in test [6].

With Isotype Control (antibody), the Binding Ratio: Normalized to Unstained Sample of Each Cell Line (FL4-A) in test [7] came out at 2; in test [8] it was 3; in test [9], 3.

For the substance “human Leukemia Inhibitory Factor (from UniProt P15018 23-202) (ligand)”, the EC50 of activation of IMR-32/STAT3-luc cells (STAT3-luciferase) in [10] amounted to 23 pM.
